The values that follow come from publication PMC8510550.

The target in the test is VirB4-like TraB ATPase of the pKM101-encoded type IV secretion system (plasmid pKM101 (carried in E. coli)). Description: cryo-EM structure; in situ cryo-electron tomography with subtomogram averaging of T4SS(pKM101) machines in E. coli UU2834 minicells; 6-fold symmetry seen in class averages and then imposed for the IMC; wild type compared with ΔtraB mutant machines.

Usually stoichiometry N stands for a count of units in the complex or per binding partner. The substance “VirB4-like TraB ATPase of the pKM101-encoded type IV secretion system (enzyme)” returned a stoichiometry N of 12.
